B1: R1463 (VHH)
VHH: QVQLVESGGGVVQPGGSLRLSCTCSRCTFNWDGMGWFRQAPGKGLEFVATISWSGQEPAYADSVKGRFTISRDNSKNTLYLQMTSLRAEDTAVYYCAAAQYTGASYSILRDQVGYDYWGQGTLVTVSS
notes: also called RX017 VHH-His标签; 对照
B2: R1475 (VHH, not shown: small tags and cut ends)
VHH 1: B1 VHH
VHH 2: B1 VHH
notes: also called 人源化多价结合蛋白 R1475; VHH-Linker-VHH-His标签
B3: R1464 (VHH, not shown: small tags and cut ends)
chain (part 1 of 3): HHHHHHQVQLVESGGGVVQPGGSLRLSCTCSRCTFNWDGMGWFRQAPGKGLEFVATISWSGQEPAYADSVKGRFTISRDNSKNTLYLQMTSLRAEDTAVYYCAAAQYTGASYSILRDQVGYDYWGQGTLVTVSS
chain (part 2 of 3): B1 VHH
chain (part 3 of 3): B1 VHH
notes: also called 人源化多价结合蛋白 R1464; His标签-VHH-Linker-VHH-Linker-VHH

What follows are binders tested against T1, Delta变异株SARS-COV-2 RBD蛋白(Ag101) (SARS-COV-2 Delta变异株, UniProt P0DTC2 319-541) (assay: competition ELISA: Delta RBD coated, blocks ACE2 binding).
T1 construct: domain: RBD; also called Delta variant SARS-COV-2 RBD protein
For B1, the IC50 was 18.1 pM.
With B2 the IC50 was 3.34 pM.
B3 showed an IC50 of 4.32 pM.
